These results are taken from patent US20250340631A1 (HARBOUR BIOMED SHANGHAI, published 2025).

The labels stand for the following.
B1: PR004953 (antibody, V domains shown)
VH: EVQLVESGGGVVQPGRSLRLSCAASGFTFSSYGMHWVRQAPGKGLEWVAVIGYDGRNKYYADSVKGRFTISRDNSKNTLFLQMDNLRAEDTALYYCARHFPSLPGTTDTFDIRGPGTMVTVSS
notes: anti-CLDN18.2 HCAb: VH fused to human IgG1 Fc, no light chain; also called R1029P024B07
B2: PR000400 (antibody, human IgG1, kappa, V domains shown)
VH: QVQLQQPGAELVRPGASVKLSCKASGYTFTSYWINWVKQRPGQGLEWIGNIYPSDSYTNYNQKFKDKATLTVDKSSSTAYMQLSSPTSEDSAVYYCTRSWRGNSFDYWGQGTTLTVSS
VL: DIVMTQSPSSLTVTAGEKVTMSCKSSQSLLNSGNQKNYLTWYQQKPGQPPKLLIYWASTRESGVPDRFTGSGSGTDFTLTISSVQAEDLAVYYCQNDYSYPFTFGSGTKLEIKR
notes: also called IMAB362 analogue
B3: PR004227 (antibody, V domains shown)
VH: EVQLVESGGGLVQPGGSLRLSCAASGFTFSSYWMHWVRQAPGKGLEWVSYINNDGSSTRYADSVKGRFTISRDNAKNTLYLQMNSLRAEDTAVYYCTEAPPYGNYERDYWGQGTLVTVSS
notes: anti-CLDN18.2 HCAb: VH fused to human IgG1 Fc, no light chain; also called R1029P(CG20)001B02
B4: PR004536 (antibody, V domains shown)
VH: EVQLVESGGGLVQPGGSLRLSCAASGFTFSSYWMYWVRQVPGKGLVWVSHINSDGSTTQYADSVKGRFTISRDNAKNMLYLQMNSLRAEDTAVYYCARDFPVLGGSHFDFQHWGQGTLVTVSS
notes: anti-CLDN18.2 HCAb: VH fused to human IgG1 Fc, no light chain; also called R1029P028A11
B5: PR007245 (antibody, human IgG1, V domains shown)
VH: EVQLVESGGGLVQPGGSLRLSCAASGFTFSSYWMHWVRQVPGKGLVWVSRISSDASRTIYADSVKGRFTISRDNAKNTLYLQMNSLRAEDTAVYYCARGEDHDILTGYPIRGQGTTVTVSS
notes: HCDR2 PTM-removal mutant of PR004533; HCAb, human IgG1 Fc; also called 4533_M6E6
B6: PR007244 (antibody, human IgG1, V domains shown)
VH: B5 VH with S52D, D54R, A55G
notes: HCDR2 PTM-removal mutant of PR004533; HCAb, human IgG1 Fc; also called 4533_M4H6
B7: PR007242 (antibody, human IgG1, V domains shown)
VH: B5 VH with S52N, S53F, A55S
notes: HCDR2 PTM-removal mutant of PR004533; HCAb, human IgG1 Fc; also called 4533_M10E1
B8: PR007248 (antibody, human IgG1, V domains shown)
VH: B5 VH with S52N, S53H, A55S
notes: HCDR2 PTM-removal mutant of PR004533; HCAb, human IgG1 Fc; also called 4533_M10E7
B9: PR007243 (antibody, human IgG1, V domains shown)
VH: B5 VH with D54A, A55G
notes: HCDR2 PTM-removal mutant of PR004533; HCAb, human IgG1 Fc; also called 4533_M3D9
B10: PR007246 (antibody, human IgG1, V domains shown)
VH: B5 VH with D54T, A55G
notes: HCDR2 PTM-removal mutant of PR004533; HCAb, human IgG1 Fc; also called 4533_M3F10
B11: PR007247 (antibody, human IgG1, V domains shown)
VH: B4 VH with S53P, D54L
notes: HCDR2 PTM-removal mutant of PR004536; HCAb, human IgG1 Fc; also called 4536_M8A6
B12: PR002199 (bispecific antibody)
chain 1: not shown
chain 2: EVQLVESGGGLVQPGRSLRLSCAASGFTFDDYAMHWVRQAPGKGLEWVSGISWNSGSIGYADSVKGRFTISRDNAKNSLYLQMNSLRAEDTALYYCAKDSRGYGDYRLGGAYWGQGTLVTVSSASTKGPSVFPLAPSSKSTSGGTAALGCLVKDYFPEPVTVSWNSGALTSGVHTFPAVLQSSGLYSLSSVVTVPSSSLGTQTYICNVNHKPSNTKVDKKVEPKSCDKTHTCPPCPAPEAAGGPSVFLFPPKPKDTLMISRTPEVTCVVVDVSHEDPEVKFNWYVDGVEVHNAKTKPREEQYNSTYRVVSVLTVLHQDWLNGKEYKCKVSNKALGAPIEKTISKAKGQPREPQVYTLPPCREEMTKNQVSLWCLVKGFYPSDIAVEWESNGQPENNYKTTPPVLDSDGSFFLYSKLTVDKSRWQQGNVFSCSVMHEALHNHYTQKSLSLSPGK
chain 3: EVQLLESGGGLVQPGGSLRLSCAASGFTVSSYGMSWVRQAPGKGPEWVSGIRGSDGSTYYADSVKGRFTISRDNSKNTLYLQMNSLRAEDTAVYYCAKQGENDGPFDHRGQGTLVTVSSGGGGSEVQLLESGGGLVQPGGSLRLSCAASGFTVSSYGMSWVRQAPGKGPEWVSGIRGSDGSTYYADSVKGRFTISRDNSKNTLYLQMNSLRAEDTAVYYCAKQGENDGPFDHRGQGTLVTVSSASEPKSSDKTHTCPPCPAPEAAGGPSVFLFPPKPKDTLMISRTPEVTCVVVDVSHEDPEVKFNWYVDGVEVHNAKTKPREEQYNSTYRVVSVLTVLHQDWLNGKEYKCKVSNKALGAPIEKTISKAKGQPREPQVCTLPPSREEMTKNQVSLSCAVKGFYPSDIAVEWESNGQPENNYKTTPPVLDSDGSFFLVSKLTVDKSRWQQGNVFSCSVMHEALHNHYTQKSLSLSPGK
B13: PR004540 (antibody, V domains shown)
VH: B5 VH with S31I, W47L, A55G, S56N, R57Y, I59S, Y95L, I104M, I110V
notes: anti-CLDN18.2 HCAb: VH fused to human IgG1 Fc, no light chain; also called R1029P037B07

Changes are numbered by the printed parent chain. Names may count otherwise.

One assay concerns the target T1, human CLDN18.2 (human).
T1 construct: the HEK293 line was made with a GenScript plasmid; also called hCLDN18.2
Nature of the assay: FACS on NUGC4_D8 cells.
Experimental: (§1) The binding affinity of an antibody was detected by FACS using human CLDN18.1-expressing HEK293 cells, human CLDN18.2-expressing HEK293 cells, NUGC4_D8 cells and SNU601 cells endogenously expressing human CLDN18.2 (Cobioer, CBP60507). […] The cell density was adjusted to 10⁶ cells/mL, and 50 μL of the cell suspension was added to each well of a 96-well plate. Antibodies were diluted to different concentrations with FACS buffer, and 50 μL of the antibody dilution was added to each well of the 96-well plate. After 2 h of incubation at 4° C., the plate was washed twice with FACS buffer. […] After 1 h of incubation at 4° C., the plate was washed twice with FACS buffer. The cells were resuspended in fixative solution, and then the fluorescence of the cells was monitored using an FACS instrument (ACEA NovoCyte).
As for B1, the response was half-maximal at 12 nM (EC50) and the “Emax (MFI)” value amounted to 219000 MFI.
Taken in the same sequence, the figures for B2 were 17 nM and 101000 MFI.

In another assay the target is T1, human CLDN18.2. Nature of the assay: FACS on SNU601 cells.
Experimental: as §1
Turning to B3, the EC50 (commonly the concentration needed to bring the measured effect to its halfway point) is 28.5 nM and the “Emax (MFI)” value is 14800 MFI.
Taken in the same sequence, the figures for B4 were 52.7 nM and 15800 MFI.

In another assay the target is T1, human CLDN18.2. Nature of the assay: competition FACS on HEK293/hCLDN18.2 cells; competitor 200 nM biotinylated PR004549.
Experimental: (§2) This example is to study the binding of anti-human CLDN18.2 bispecific antibodies to the epitope region of a human CLDN18.2 antigen. Competitive binding experiments were performed at the cellular level using human CLDN18.2-overexpressing HEK293/hCLDN18.2 cells. […] The mixture was well mixed and incubated at 4° C. for 30 min. 25 μL of the corresponding serially diluted non-biotinylated anti-human CLDN18.2 antibody was added. The mixture was well mixed and incubated at 4° C. for 1 h. The cells in each well were washed twice with 200 μL of pre-cooled FACS buffer (2% BSA in DPBS) and centrifuged at 500 g at 4° C. for 5 min, and then the supernatant was discarded. A fluorescent secondary antibody (Jackson ImmunoResearch, 016-540-084, 1:500) was added. The mixture was incubated at 4° C. in the absence of light for 1 h. The cells in each well were washed twice with 200 μL of pre-cooled FACS buffer (2% BSA in DPBS) and centrifuged at 500 g at 4° C. for 5 min, and then the supernatant was discarded. Finally, the cells in each well were resuspended in 200 μL of pre-cooled FACS buffer, and the fluorescence signal values were read using a ACEA_NovoCyte.
Turning to B2, the half-inhibitory concentration (IC50) (as a rule, the concentration that gives 50% inhibition) was found to be 25.2 nM and the “Maximum inhibition rate (%)” value is 52.3%.

The target in a further assay is T1, human CLDN18.2. Kind of assay: FACS on NUGC4_D8 cells. The source holds these as a separate data set.
Experimental: as §1
Take B2: the concentration giving a half-maximal response (EC50) is 56.4 nM and the “Emax (MFI)” value stood at 58400 MFI.
Taken in the same sequence, the figures for B5 were 63.2 nM and 137000 MFI.
Taken in the same sequence, the figures for B6 were 49.2 nM and 153000 MFI.
Taken in the same sequence, the figures for B7 were 69.5 nM and 176000 MFI.
For B8, it took 74.6 nM to reach a half-maximal effect (EC50) and the “Emax (MFI)” value came to 174000 MFI.
Taken in the same sequence, the figures for B9 were 78.2 nM and 176000 MFI.
B10: the 50% effective concentration (EC50) was determined as 55.9 nM and the “Emax (MFI)” value was 166000 MFI.

The next assay addresses T1, human CLDN18.2. Nature of the assay: FACS on HEK293/hCLDN18.2 cells.
Experimental: as §1
Turning to B2, the concentration for a half-maximal effect (EC50) was 5.6 nM and the “Emax (MFI)” value was determined as 1.32e+06 MFI.
Taken in the same sequence, the figures for B5 were 13 nM and 1.31e+06 MFI.
Taken in the same sequence, the figures for B6 were 11.7 nM and 1.3e+06 MFI.
Consider B7, for which the EC50 was determined as 11.3 nM and the “Emax (MFI)” value was 1.48e+06 MFI.
B8: the EC50 is 12.8 nM and the “Emax (MFI)” value amounted to 1.31e+06 MFI.
Taken in the same sequence, the figures for B9 were 13.3 nM and 1.47e+06 MFI.
Taken in the same sequence, the figures for B10 were 14.4 nM and 1.37e+06 MFI.
Regarding B11, the midpoint of the response, the EC50, lay at 35.3 nM and the “Emax (MFI)” value came out at 1.27e+06 MFI.

The target in a further assay is T2, Biotinylated human CD3E&D (human, UniProt P07766 23-126; P04234 22-105, biotin label).
T2 construct: also called CDD-H82W6
T2 sequence (P07766 23-126, chain 1 of 2): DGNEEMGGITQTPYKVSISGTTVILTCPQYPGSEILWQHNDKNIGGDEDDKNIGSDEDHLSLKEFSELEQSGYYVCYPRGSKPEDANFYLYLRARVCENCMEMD
T2 sequence (P04234 22-105, chain 2 of 2): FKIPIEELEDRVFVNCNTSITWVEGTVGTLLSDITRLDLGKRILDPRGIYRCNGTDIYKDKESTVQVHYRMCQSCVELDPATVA
Kind of assay: BLI (Octet), biotinylated CD3 on SA sensor, 1:1 global fit.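 Also: antibodies applied as analyte in 2-fold serial dilutions, with a 180 s association phase followed by a 300 s dissociation phase.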
Experimental: The binding kinetics between proteins and antibodies was analyzed by the Biolayer Interferometry (BLI) technique using an Octet Red 96e (Fortebio) system. Human CD3E (Acro, CDE-H5223), cynomolgus CD3E (Acro, CDE-C5226) and murine CD3E (Acro, CDE-M5256) were mixed with biotin (Thermo Scientific, A39257) in a molar ratio of 1:3. The mixture was incubated at 4° C. overnight, and then excess biotin was removed to obtain biotinylated CD3E. The rotation speed was set at 1000 rpm for the system. […] After being equilibrated in the buffer for 120 s, the SA sensor with captured CD3 was allowed to bind to 2-fold serially diluted antibodies. […] Finally, the SA sensor was immersed in a 10 mM glycine-hydrochloric acid solution at pH 1.5 for regeneration to elute the antibodies bound to the sensor. […] For the interactions of fast binding and fast dissociation, the “steady state” method was selected to fit the data to obtain KD(M) values.
On to B12, for which the Kd (in general, the free concentration of one partner at which half of the binding sites on the other are occupied at equilibrium, for simple one-to-one binding) was 241 nM; the koff (as a rule, the first-order rate constant of dissociation) worked out at 0.0518 s⁻¹; the association rate constant (kon) (commonly the rate constant with which the complex forms) stood at 215000 M⁻¹ s⁻¹.

A further assay has as its target T1, human CLDN18.2. Kind of assay: competition FACS on HEK293/hCLDN18.2 cells; competitor 200 nM biotinylated PR004549. The source holds these as a separate data set.
Experimental: (§3) This example is to study the binding of anti-human CLDN18.2 HCAb monoclonal antibodies to the epitope region of human CLDN18.2 antigen. Competitive binding experiments were performed at the cellular level using HEK293/hCLDN18.2 cells overexpressing human CLDN18.2. […] Then suspension of HEK293/hCLDN18.2 cells overexpressing human CLDN18.2 were adjusted to 3×10⁶ cells/mL, seeded 50 L/well. The cells were co-incubated at 4° C. for 2 h. The cells in each well were washed twice with 200 μL of pre-cooled FACS buffer (2% FBS in PBS) and centrifuged at 500 g at 4° C. for 5 min, and then the supernatant was discarded. […] The cells in each well were washed twice with 200 μL of pre-cooled FACS buffer (2% FBS in PBS) and centrifuged at 500 g at 4° C. for 5 min, and then the supernatant was discarded. Finally, the cells in each well were resuspended in 200 μL of pre-cooled FACS buffer, and the fluorescence signal values were read using a BD FACS CANTOII.
For B3, the half-maximal inhibitory concentration (IC50) was found to be 20.3 nM and the “Maximum inhibition rate (%)” value was found to be 93.8%.
B1: the IC50 was 13.8 nM and the “Maximum inhibition rate (%)” value turned out to be 93.2%.
Taken in the same sequence, the figures for B2 were 11.5 nM and 90.7%.
Taken in the same sequence, the figures for B13 were 50 nM and 89.2%.
Regarding B4, the IC50 stood at 74.1 nM and the “Maximum inhibition rate (%)” value was found to be 90.1%.

A further assay has as its target T1, human CLDN18.2. Kind of assay: competition FACS on HEK293/hCLDN18.2 cells; competitor 10 nM biotinylated PR000400.
Experimental: as §2
Take B2: the 50% inhibitory concentration (IC50) came out at 36.2 nM and the “Maximum inhibition rate (%)” value came to 92.7%.

A further assay has as its target T1, human CLDN18.2. The description is as above. This is another data set of the same source.
Experimental: as §3
B3: the IC50 was 22.3 nM and the “Maximum inhibition rate (%)” value was 98.3%.
Taken in the same sequence, the figures for B1 were 16.7 nM and 98%.
Taken in the same sequence, the figures for B2 were 20.1 nM and 96.4%.
On to B13, for which the 50% inhibitory concentration (IC50) was 64.1 nM and the “Maximum inhibition rate (%)” value came to 95.8%.
Taken in the same sequence, the figures for B4 were 103 nM and 98%.
